Substrate: O=c1ccn([C@H]2C[C@H](O)[C@@H](COP(=O)(O)OP(=O)(O)OP(=O)(O)O)O2)c(=O)[nH]1
Assay: purified protein, by the assay type
Details: other: substrate dUTP, 20 mM Tris-HCl pH 7.5, 37° C., purified recombinant DUT-N

B1: recombinant human dUTPase nuclear isoform DUT-N (Seq. ID No. 2), expressed in baculovirus/Sf21 insect cells (Homo sapiens) (protein)
chain: MPCSEETPAISPSKRARPAEVGGMQLRFARLSEHATAPTRGSARAAGYDLYSAYDYTIPPMEKAVVKTDIQIALPSGCYGRVAPRSGLAAKHFIDVGAGVIDEDYRGNVGVVLFNFGKEKFEVKKGDRIAQLICERIFYPEIEEVQALDDTERGSGGFGSTGKN
  Km: 2.5 µM

Source: patent publication US5962246A
